Source: paper PMC9894263

Target: GLUT4 template complex Munc18-3:Syntaxin-4:VAMP2 (rat | not stated) (UniProt Q08850)
Experiment: optical tweezers

B1: full-length cysteine-free SNAP-23 ([change], [change], [change], [change], [change]) (natural protein)
chain: MDDLSPEEIQLRAHQVTDESLESTRRILGLAIESQDAGIKTITMLDEQGEQLNRIEEGMDQINKDMREAEKTLTELNKSSGLSVSPSNRTKNFESGKNYKATWGDGGDSSPSNVVSKQPSRITNGQPQQTTGAASGGYIKRITNDAREDEMEENLTQVGSILGNLKNMALDMGNEIDAQNQQIQKITEKADTNKNRIDIANTRAKKLIDS
- probability of SNAP-23 binding: 0.42
